The source of these data is US20140255383A1 (SYNAGEVA BIOPHARMA, published 2014).

In this assay the target is Mannose 6-phosphate receptor (M6P receptor) on human MPS IIIB fibroblasts (human). Kind of assay: cell-based or functional assay.

B1: recombinant human N-acetyl-alpha-D-glucosaminidase (rhNaGlu) produced from a transgenic avian (Gallus) (enzyme)
chain: DEAREAAAVRALVARLLGPGPAADFSVSVERALAAKPGLDTYSLGGGGAARVRVRGSTGVAAAAGLHRYLRDFCGCHVAWSGSQLRLPRPLPAVPGELTEATPNRYRYYQNVCTQSYSFVWWDWARWEREIDWMALNGINLALAWSGQEAIWQRVYLALGLTQAEINEFFTGPAFLAWGRMGNLHTWDGPLPPSWHIKQLYLQHRVLDQMRSFGMTPVLPAFAGHVPEAVTRVFPQVNVTKMGSWGHFNCSYSCSFLLAPEDPIFPIIGSLFLRELIKEFGTDHIYGADTFNEMQPPSSEPSYLAAATTAVYEAMTAVDTEAVWLLQGWLFQHQPQFWGPAQIRAVLGAVPRGRLLVLDLFAESQPVYTRTASFQGQPFIWCMLHNFGGNHGLFGALEAVNGGPEAARLFPNSTMVGTGMAPEGISQNEVVYSLMAELGWRKDPVPDLAAWVTSFAARRYGVSHPDAGAAWRLLLRSVYNCSGEACRGHNRSPLVRRPSLQMNTSIWYNRSDVFEAWRLLLTSAPSLATSPAFRYDLLDLTRQAVQELVSLYYEEARSAYLSKELASLLRAGGVLAYELLPALDEVLASDSRFLLGSWLEQARAAAVSEAEADFYEQNSRYQLTLWGPEGNILDYANKQLAGLVANYYTPRWRLFLEALVDSVAQGIPFQQHQFDKNVFQLEQAFVLSKQRYPSQPRGDTVDLAKKIFLKYYPRWVAGSW
modifications: glycosylated; glycans carry mannose-6-phosphate (3.2 moles of M6P per mole of protein), sites not stated
As for B1, the “cellular uptake: NaGlu activity in MPS IIIB fibroblasts treated with 0.3 µg/mL rhNaGlu for 24 hours, against wild-type fibroblasts” value is ~50 % of wild-type activity; the “cellular uptake: NaGlu activity in MPS IIIB fibroblasts treated with 1 µg/mL rhNaGlu for 24 hours, against wild-type fibroblasts” value was ~4 fold of wild-type activity; the “cellular uptake: NaGlu activity in MPS IIIB fibroblasts treated with 30 µg/mL rhNaGlu for 24 hours, against wild-type fibroblasts” value is ≥ 40 fold of wild-type activity.
